Experimental data: patent US20240101668A1 (WUGEN, published 2024)

T1: huCLL1-Q244-Avi-Tev-His (human, UniProt Q5QGZ9 65-265)
T1 construct: extracellular domain; also called CLL-1 K244Q
T1 sequence (looked up): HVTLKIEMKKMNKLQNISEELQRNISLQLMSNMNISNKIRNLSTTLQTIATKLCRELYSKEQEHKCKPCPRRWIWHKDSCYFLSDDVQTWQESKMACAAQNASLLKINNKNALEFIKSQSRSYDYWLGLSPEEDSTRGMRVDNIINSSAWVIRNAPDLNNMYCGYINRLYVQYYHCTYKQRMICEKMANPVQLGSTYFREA

T2: huCLL1-K244-Avi-Tev-His (human, UniProt Q5QGZ9 65-265)
T2 construct: extracellular domain
T2 sequence (looked up): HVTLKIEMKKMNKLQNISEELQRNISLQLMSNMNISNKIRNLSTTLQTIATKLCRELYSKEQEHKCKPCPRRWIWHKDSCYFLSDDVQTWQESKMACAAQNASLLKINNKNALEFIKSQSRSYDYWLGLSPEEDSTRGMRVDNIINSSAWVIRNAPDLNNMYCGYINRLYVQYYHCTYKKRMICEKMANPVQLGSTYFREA


How the values were obtained:
[1] = target: T1, huCLL1-Q244-Avi-Tev-His; test: BLI
Experimental: (§1) Discovered scFvs were analyzed for binding to huCD33-R69-His or huCD33-G69-Fc recombinant proteins (for anti-CD33 scFvs; for CLL-1 scFvs, huCLL1-K244-Avi-Tev-His or huCLL1-Q244-Avi-Tev-His were used; for FLT3, huFLT3-T227-His or huFLT3-M227-Fc were used) using BLI on a ForteBio Octet HTX instrument. Streptavidin-coated biosensors were loaded with biotinylated anti-V5 tag monoclonal antibody for 5 min and were then quenched and blocked with 20 μM amine-PEG2-Biotin for 5 min. scFvs were captured on biosensors from scFv clone periplasmic extracts. huCD33 (or huCLL-1, or huFLT3) proteins were then associated with the captured scFvs for 2 minutes, followed by dissociation with buffer (1×HBST [10 mM HEPES pH 7.4, 150 mM NaCl, 0.05% Tween-20], 1 g/L BSA) for 5 minutes. […] Data was fitted with 1:1 Langmuir equation and off-rate values were reported.
(§2) Analogous methods were used to assess selectivity of binding of polypeptides to CLL-1 K244 or CLL-1 Q244.

[2] = target: T2, huCLL1-K244-Avi-Tev-His; test: BLI
Experimental: as §1, §2
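Further: Bio-layer interferometry with scFvs captured on biosensors via anti-V5 antibody, exposed 2 min to CLL-1 K244 or Q244 protein, 5 min dissociation, scored as binding, no binding or ambiguous.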

Binder | binding result [1] | binding result [2]
Polypeptide No. 68 (scFv, V domains shown, scFv) VH: QVQLVQSGAEVKKPGASVKVSCKASGYTFSSYDINWVRQAPGQGLEWVGWINPRNGGTDYAQKFQGRVTMTRDTSTSTVYMELSSLRSEDTAVYYCARHRWELDSFDYWGQGTLVTVSS VL: DIQMTQSPSSLSASVGDRVTITCRASQSISNYLNWYQQKPGKAPKLLIYATSSLQSGVPSRFSGSGSGTDFTLTISSLQPEDFATYYCQQGYNIPFTFGQGTKLEIKR | binds | no binding
Polypeptide No. 86 (scFv, V domains shown, scFv) VH: QVQLVQSGAEVKKPGASVKVSCKASGYTFTTYGISWVRQAPGQGLEWMGWINPNSGDTNYAQKFQGRVTMTRDTSTSTVYMELSSLRSEDTAVYYCARLTTATDSFDLWGRGTLVTVSS VL: not shown | binds | no binding
Polypeptide No. 74 (scFv, V domains shown, scFv) VH: QVQLVQSGAEVKKPGSSVKVSCKASGYTFTKYEINWVRQAPGQGLEWMGGIIPIFGTANYAQKFQGRVTITADESTSTAYMELSSLRSEDTAVYYCARGSGWYTPLFDYWGQGTLVTVSS VL: DIQMTQSPSSLSASVGDRVTITCRASQGISNNLNWYQQKPGKAPKLLIYDASYLETGVPSRFSGSGSGTDFTLTISSLQPEDFATYYCQQSYSAPLTFGQGTKVEIKR | binds | no binding
Polypeptide No. 72 (scFv, V domains shown, scFv) VH: QVQLVQSGAEVKKPGASVKVSCKASGGTFSNYAISWVRQAPGQGLEWMGWISAYNGNSDYAQNLQGRVTMTRDTSTSTVYMELSSLRSEDTAVYYCAIGDYFDYWGQGTLVTVSS VL: DIQMTQSPSSLSASVGDRVTITCQASEDINKYLNWYQQKPGKAPKLLIYDASNLETGVPSRFSGSGSGTDFTLTISSLQPEDFATYYCQQANSFPLTFGQGTKVEIKR | binds | no binding
Polypeptide No. 78 (scFv, V domains shown, scFv) VH: QVQLVQSGAEVKKPGSSVKVSCKASGGTFSRYPFSWVRQAPGQGLEWMGWMNPNNGDTGYAQKFQGRVTITADESTSTAYMELSSLRSEDTAVYYCARGDYPYMDVWGKGTTVTVSS VL: DIQMTQSPSSLSASVGDRVTITCQASQDISNYLNWYQQKPGKAPKLLIYDASNLETGVPSRFSGSGSGTDFTLTISSLQPEDFATYYCQQSYSIPYTFGQGTKLEIKR | binds | no binding
Polypeptide No. 84 (scFv, V domains shown, scFv) VH: QVQLVQSGAEVKKPGASVKVSCKASGGTFSNYAISWVRQAPGQGLEWMGWINPNSGGTNYAQKFQGRVTMTRDTSTSTVYMELSSLRSEDTAVYYCARVGYYDSSGGGMDVWGQGTTVTVSS VL: DIQMTQSPSSLSASVGDRVTITCRASQSISSWLAWYQQKPGKAPKLLIYDASNLETGVPSRFSGSGSGTDFTLTISSLQPEDFATYYCLQTHSFPLTFGPGTKVDIKR | binds | no binding
Polypeptide No. 82 (scFv, V domains shown, scFv) VH: QVQLVQSGAEVKKPGSSVKVSCKASGGTFSNYDISWVRQAPGQGLEWMGGIIPIFGTANYAQKFQGRVTITADESTSTAYMELSSLRSEDTAVYYCAREAEEGGWFDPWGQGTLVTVSS VL: EIVMTQSPATLSVSPGERATLSCRASQSVSSYLAWYQQKPGQAPRLLIYGASTRATGIPARFSGSGSGTEFTLTISSLQSEDFAVYYCQQYAFSPITFGQGTKLEIKR | binds | no binding
Polypeptide No. 63 (scFv, V domains shown, scFv) VH: QVQLVQSGAEVKKPGASVKVSCKASGYTFTGYYVHWVRQAPGQGLEWMGVINPSGGGSPSYAQKFQGRVTMTRDTSTSTVYMELSSLRSEDTAVYYCARDRSDVDYGMDVWGQGTTVTVSS VL: DIQMTQSPSSLSASVGDRVTITCQASQDISNYLNWYQQKPGKAPKLLIYDASNLQSGVPSRFSGSGSGTDFTLTISSLQPEDFATYYCLQHNSYPLTFGGGTKVEIKR | no binding | binds
Polypeptide No. 81 (scFv, V domains shown, scFv) VH: EVQLLESGGGLVQPGGSLRLSCAASGFTFSDHYMSWVRQAPGKGLEWVSIIYPDGKTYYADSVKGRFTISRDNSKNTLYLQMNSLRAEDTAVYYCAREGSYGDYDGMDVWGQGTTVTVSS VL: DIQMTQSPSSLSASVGDRVTITCQASQDISNYLNWYQQKPGKAPKLLIYGASTLQSGVPSRFSGSGSGTDFTLTISSLQPEDFATYYCQQSYSTPWTFGQGTKLEIKR | binds | no binding

Next, values leading:

binding result [1] | binding result [2] | Binder
no binding | binds | Polypeptide No. 65 (scFv, V domains shown, scFv) VH: QVQLVQSGAEVKKPGASVKVSCKASGYTFTGYYMHWVRQAPGQGLEWMGWINPNSGGTNYAQKFQGRVTMTRDTSTSTVYMELSSLRSEDTAVYYCAREIGGYDNYYYYGMDVWGQGTTVTVSS VL: DIQMTQSPSSLSASVGDRVTITCRASQSIGTYLNWYQQKPGKAPKLLIYAASSLQSGVPSRFSGSGSGTDFTLTISSLQPEDFATYYCQQSYTDPWTFGQGTKVEIKR
no binding | binds | Polypeptide No. 66 (scFv, V domains shown, scFv) VH: QVQLVQSGAEVKKPGASVKVSCKASGYTFNTYYMHWVRQAPGQGLEWMGWMHPNTGNTGYAQKFQGRVTMTRDTSTSTVYMELSSLRSEDTAVYYCARGTTSDAFDIWGQGTMVTVSS VL: DIQMTQSPSSLSASVGDRVTITCRASQSIFSYLNWYQQKPGKAPKLLIYSASNLQSGVPSRFSGSGSGTDFTLTISSLQPEDFATYYCQQSYSTPITFGQGTKVEIKR
binds | no binding | Polypeptide No. 80 (scFv, V domains shown, scFv) VH: QVQLVQSGAEVKKPGASVKVSCKASGFTFTSYYMHWVRQAPGQGLEWMGWMNPNSGNTGYAQRFQGRVTMTRDTSTSTVYMELSSLRSEDTAVYYCARGHSRTDYGMDVWGQGTTVTVSS VL: DIQMTQSPSSLSASVGDRVTITCRASQSISSWLAWYQQKPGKAPKLLIYDTSSLQSGVPSRFSGSGSGTDFTLTISSLQPEDFATYYCQQGYSTPLTFGQGTKVEIKR
binds | no binding | Polypeptide No. 70 (scFv, V domains shown, scFv) VH: EVQLLESGGGLVQPGGSLRLSCAASGMSVTSNHMSWVRQAPGKGLEWVSSIYPDGKTYYADSVKGRFTISRDNSKNTLYLQMNSLRAEDTAVYYCARDEEDWFDPWGQGTLVTVSS VL: DIQMTQSPSSLSASVGDRVTITCQASQSISNWLAWYQQKPGKAPKLLIYAASTLQSGVPSRFSGSGSGTDFTLTISSLQPEDFATYYCQQSYSTPWTFGQGTKVEIKR
no binding | binds | Polypeptide No. 62 (scFv, V domains shown, scFv) VH: QVQLVQSGAEVKKPGASVKVSCKASGYTFTDHFVHWVRQAPGQGLEWMGWISAYNGNTNYAQKFQGRVTMTRDTSTSTVYMELSSLRSEDTAVYYCARAEYSYGFDYWGQGTLVTVSS VL: DIQMTQSPSSLSASVGDRVTITCRASQGIHNYLAWYQQKPGKAPKLLIYDASNLETGVPSRFSGSGSGTDFTLTISSLQPEDFATYYCQQTSSFPYTFGQGTKLEIKR
binds | no binding | Polypeptide No. 67 (scFv, V domains shown, scFv) VH: QVQLVQSGAEVKKPGASVKVSCKASGDTFTRHYVHWVRQAPGQGLEWMGRVNPRDGRTNSAQKFQGRVTMTRDTSTSTVYMELSSLRSEDTAVYYCAKDMFPTVTGTYYYYGMDVWGQGTTVTVSS VL: DIQMTQSPSSLSASVGDRVTITCRASQGISSYLAWYQQKPGKAPKLLIYDASNLETGVPSRFSGSGSGTDFTLTISSLQPEDFATYYCQQASGFPYTFGQGTRLEIKR
binds | no binding | Polypeptide No. 76 (scFv, V domains shown, scFv) VH: QVQLVQSGAEVKKPGASVKVSCKASGYTFTTYYMHWVRQAPGQGLEWMGIINVSAGTTSYAQKFQGRVTMTRDTSTSTVYMELSSLRSEDTAVYYCAKEPYPHQSGWFFDYWGQGTLVTVSS VL: DIQMTQSPSSLSASVGDRVTITCQASQDINNYLNWYQQKPGKAPKLLIYDASNLETGVPSRFSGSGSGTDFTLTISSLQPEDFATYYCQQANSFPLTFGGGTKVEIKR
no binding | binds | Polypeptide No. 64 (scFv, V domains shown, scFv) VH: QVQLVQSGAEVKKPGASVKVSCKASGYTFTDYYMHWVRQAPGQGLEWMGLIDPSGGSTNSLQKFQGRVTMTRDTSTSTVYMELSSLRSEDTAVYYCARDVGFGELSFDIWGQGTTVTVSS VL: DIVMTQSPLSLPVTPGEPASISCRSSQSLLHSNGYNYLDWYLQKPGQSPQLLIYAASTLQSGVPDRFSGSGSGTDFTLKISRVEAEDVGVYYCMQGTHWPPTFGPGTKVDIKR
no binding | binds | Polypeptide No. 60 (scFv, V domains shown, scFv) VH: QVQLVQSGAEVKKPGSSVKVSCKASGGTFSSYAISWVRQAPGQGLEWMGGIIPMFGTANYAQKFQGRVTITADESTSTAYMELSSLRSEDTAVYYCARDLGYSNAGGTLHYWGQGTLVTVSS VL: EIVMTQSPATLSVSPGERATLSCRASQSIGTYLAWYQQKPGQAPRLLIYDASSRATGIPARFSGSGSGTEFTLTISSLQSEDFAVYYCQQYKSYPLTFGGGTKVEIKR
binds | no binding | Polypeptide No. 71 (scFv, V domains shown, scFv) VH: EVQLLESGGGLVQPGGSLRLSCAASGFTFSNHYMSWVRQAPGKGLEWVAVIWPDGSKEYYADSVKGRFTISRDNSKNTLYLQMNSLRAEDTAVYYCAREDYYGSGMDYWGQGTLVTVSS VL: DIQMTQSPSSLSASVGDRVTITCQASQDISNYLNWYQQKPGKAPKLLIYGASTLQSGVPSRFSGSGSGTDFTLTISSLQPEDFATYYCQQYDSYPPTFGGGTKVEIKR
